Detection limit data for 2 molecules are collected here from patent EP3502685A1.

The experiment deals with T. spiralis E/S antigen.

B1: Anti-[TRISP][C9] (antibody, V domains shown)
VH: AVTLDESGGGLQTPGGALSLVCKASGFSISSYSMQWVRQAPGKGLEWVAGIYYDGNTWYAPAVKGRATISRDNGQSTVRLRLNNLRAEDTATYFCAKYAGGYSIDAWGHGTEVIVSS
VL: ALTQPSSVSANPGETVKITCSGSSGSYGWYQQKSPGSGPVTVIYYNDKRPSDIPSRFSGSASGSTATLTITGVQAEDEAVYFCGGYDSSTYVGIFGAGTTLTVL
Consider B1, for which the detection limit came out at 6 ng/mL.

B2: Anti-[TRISP][B7] (antibody, V domains shown)
VH: AVTLDESGGGLQTPRGGLSLVCKASGYTFSSHNMAWVRQAPGKGLEFVAGISNTGSFTLYGAAVKGRATISRDNGQSTVRLQLNNLRAEDTGTYYCAKHAGVGLYSIDAWGHGTEVIVSS
VL: ALTQPSSVSANLGGTVKITCSGGTSDYGWYQQKAPGSAPVTLIYDNTNRPSDIPSRFSGSLSGSTNTLTITGVQAEDEAVYFCGSADRTYAGVFGAGTTLTVL
For the molecule B2, the detection limit turned out to be 6 ng/mL.
